Experimental data reported in US8492329B2, “Bioactive peptides and methods of using same” (Compugen Ltd., priority 2007, dated 2013).
No end group written: not given here.

Columns and labels:
[1] = molecular target: T1, LGR7 (RXFP1) (Homo sapiens, UniProt Q9HBX9); test: pCRE-β-gal reporter assay in Forskolin-treated CHO-K1 cells transiently transfected with LGR7; type: cell-based; set-up: expressed in transfected cells; host or cells: CHO-K1 (transient); details: 5 uM Forskolin, FIG. 7A-B
T1 sequence (Q9HBX9 1-757): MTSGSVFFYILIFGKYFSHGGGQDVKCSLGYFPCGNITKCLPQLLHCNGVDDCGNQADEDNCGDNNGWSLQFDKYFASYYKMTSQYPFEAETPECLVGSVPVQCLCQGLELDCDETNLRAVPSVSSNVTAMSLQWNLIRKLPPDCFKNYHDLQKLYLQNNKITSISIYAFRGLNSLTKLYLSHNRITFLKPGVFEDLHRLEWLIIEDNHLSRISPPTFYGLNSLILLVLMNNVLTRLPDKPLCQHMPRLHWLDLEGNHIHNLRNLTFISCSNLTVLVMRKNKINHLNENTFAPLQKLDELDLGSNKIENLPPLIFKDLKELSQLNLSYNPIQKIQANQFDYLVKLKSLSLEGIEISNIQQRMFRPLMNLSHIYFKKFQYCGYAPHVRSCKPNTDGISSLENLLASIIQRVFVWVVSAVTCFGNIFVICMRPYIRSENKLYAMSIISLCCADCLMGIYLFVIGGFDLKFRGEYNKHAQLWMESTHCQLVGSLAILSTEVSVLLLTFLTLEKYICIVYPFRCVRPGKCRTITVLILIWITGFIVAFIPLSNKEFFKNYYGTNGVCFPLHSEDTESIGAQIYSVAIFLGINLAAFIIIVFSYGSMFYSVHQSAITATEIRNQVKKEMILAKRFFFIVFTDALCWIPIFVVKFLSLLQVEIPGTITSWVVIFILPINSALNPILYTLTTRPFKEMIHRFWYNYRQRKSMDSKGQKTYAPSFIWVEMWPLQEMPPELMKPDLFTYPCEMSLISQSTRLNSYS
Description: The ability of P74C13V (P74) (SEQ ID NO: 10) and P59C13V (P59) and P59C13V-Amide (P59-Amide) (SEQ ID NO: 6 and 5 respectively) to activate LGR7 (RXFP1) and LGR8 (RXFP2) was further tested by testing the ability of these peptides to influence cAMP activity induced by 5 μM Forskolin in CHO-K1 cells transiently transfected with LGR7/pCRE-β-gal or LGR8/pCRE-β-gal as compared to H2 relaxin and INSL3 respectively.
LGR7 transfected CHO-K1 cells were treated with 5 uM of Forskolin to stimulate cAMP. The cells were then challenged with increasing doses of H2 Relaxin (as positive control), P74C13V (P74) (SEQ ID NO: 10), P59C13V with (P59-Amide) and without (P59) amide and P59S-Amide (P59S) (SEQ ID NO: 5, 6 and 1, respectively). […] The results are presented as a percentage of Forskolin activity at increasing concentrations of each peptide (represented in log [M]). The baseline for the experiment was the activity of Forskolin alone (100%). Each point represents three unrelated repeats for each experiment together with their standard error bars.

[2] = molecular target: LGR8 (RXFP2) (Homo sapiens, UniProt Q8WXD0); test: ACEA RT-CES cell impedance, LGR8 transfected CHO-K1 cells; type: cell-based; set-up: expressed in transfected cells; host or cells: CHO-K1 (transient); details: P74C13V 10 uM, P59C13V 10 uM, H2 Relaxin 1 uM, FIG. 14
Description: ACEA RT-CES screen is a noninvasive and label-free assay for GPCRs that can be used with both engineered and nonengineered cell lines. The assay is based on using cell-electrode impedance to measure minute changes in cellular morphology as a result of ligand-dependent GPCR activation and is described in Naichen Yu, et al., Anal. Chem., 78 (1), 35-43, 2006. 10.1021/ac051695v S0003-2700(05)01695-1. The Rho family of small GTPases, which include Rho, Rac, and CDC42, are well-characterized effectors of oncogenes, growth factor and adhesion-mediated signaling pathways and are not classically thought of as being key effectors for GPCRs. Rho family GTPases participate in a number of cellular processes, the main one being regulation and maintenance of specific structures within the actin cytoskeleton framework. […] The current view of the actin cytoskeleton is that of a dynamic and plastic system that is a reflection and manifestation of the intracellular signaling and not simply a static structure designed to maintain cellular architecture. Since GPCRs couple to the actin cytoskeletal network and induce very defined morphological changes, it is possible to harness this information as a functional and biologically relevant readout for GPCRs.
ACEA biosciences; has designed electronic cell sensor arrays embedded in the bottom of the well of microtiter plates that are capable of measuring minute changes in cell morphology. The electronic sensors measure changes in cell-substrate impedance as a result of the disruption of the ionic environment due to the presence of cell and cell morphology dynamics. The main advantages offered by using cell-substrate impedance and cell morphology as a readout are that both exogenously expressed and endogenous receptors can be assayed without the need for engineering the cell with promiscuous G proteins and reporters or labeling the cells with dyes. In addition, since the readout is noninvasive, multiple stimulations with the same ligand or different ligands can be performed to assess events such as desensitization and receptor cross-talk. […]

Chain of LGR8 (RXFP2) (Q8WXD0 whole entry): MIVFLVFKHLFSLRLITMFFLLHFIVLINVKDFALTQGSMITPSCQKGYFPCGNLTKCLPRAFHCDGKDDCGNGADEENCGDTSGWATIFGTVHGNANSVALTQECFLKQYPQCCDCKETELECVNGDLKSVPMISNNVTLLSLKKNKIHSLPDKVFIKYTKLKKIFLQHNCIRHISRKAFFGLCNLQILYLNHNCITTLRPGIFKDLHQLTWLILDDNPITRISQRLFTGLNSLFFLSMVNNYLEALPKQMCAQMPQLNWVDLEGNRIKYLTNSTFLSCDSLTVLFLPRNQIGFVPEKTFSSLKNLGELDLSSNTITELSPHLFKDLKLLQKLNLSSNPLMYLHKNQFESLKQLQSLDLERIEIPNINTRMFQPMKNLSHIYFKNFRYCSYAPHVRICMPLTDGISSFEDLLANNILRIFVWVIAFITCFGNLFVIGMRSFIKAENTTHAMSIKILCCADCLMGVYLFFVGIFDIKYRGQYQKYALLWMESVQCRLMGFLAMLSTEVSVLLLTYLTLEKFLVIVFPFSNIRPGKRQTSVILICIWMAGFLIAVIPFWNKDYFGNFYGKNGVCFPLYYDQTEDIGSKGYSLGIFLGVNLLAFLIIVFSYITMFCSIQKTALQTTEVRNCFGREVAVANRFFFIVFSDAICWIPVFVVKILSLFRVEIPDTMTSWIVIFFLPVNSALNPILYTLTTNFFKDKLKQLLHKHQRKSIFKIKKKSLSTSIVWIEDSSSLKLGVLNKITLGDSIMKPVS

CRE activation pattern relative to Forskolin [1] | effect on cell impedance (normalized cell index) [2] | Substance
slight activation pattern | – | GQKGQVGPPGAAVRRAYAAFSV-Amide (GQKGQVGPPGAAVRRAYAAFSV-NH2) [P59C13V-Amide]
bell-shaped activation pattern | strong cellular effect | GQKGQVGPPGAAVRRAYAAFSVGRRAYAAFSV-OH [Peptide P74C13V]
dual activation pattern effect | no significant effect as compared to BSA | GQKGQVGPPGAAVRRAYAAFSV [Peptide P59C13V]

Substance | CRE activation pattern relative to Forskolin [1] | effect on cell impedance (normalized cell index) [2]
H2 Relaxin: H2 Relaxin (ACS), positive control, known ligand of LGR7 (RXFP1) [reference compound] | increased activation at higher concentrations | strong cellular effect
